One block for each molecule: values may come before it. Where no end group is shown, it is not given here. [ ]: non-standard residue; d: D form. The star is where a group is joined. Biotin = O=C1N[C@H]2[C@H](CS[C@H]2CCCCC(=O)*)N1; pY = N[C@@H](Cc1ccc(OP(=O)(O)O)cc1)C(=O)O
What was measured:
[1] = molecular target: phosphorylated NKG2A C-term peptide (C-terminal ITIM) (human); experiment: SPR (BIAcore), 25 RU phosphopeptide on streptavidin chip, GST fusion injected
[2] = molecular target: phosphorylated NKG2A N-term peptide (N-terminal ITIM) (human); experiment: as above
[3] = molecular target: phosphorylated NKG2A N-term peptide (N-terminal ITIM) (human); experiment: SPR (BIAcore); upper end of the range, tied by Table 4 to GST-SHP-1.SH2(N+C) and the N-terminal ITIM (4.80)
[4] = molecular target: phosphorylated NKG2A N-term peptide (N-terminal ITIM) (human); experiment: SPR (BIAcore); lower end of the range, tied by Table 4 to GST-SHP-2.SH2(N+C) and the N-terminal ITIM (1.38)
[5] = molecular target: T1, human NKG2A on NKL, M117-14 and 7-10 cells (human, UniProt P26715 1-233); experiment: immunoprecipitation with anti-NKG2A and anti-CD94 mAb
T1 construct: whole, on cells
T1 sequence (P26715 whole entry): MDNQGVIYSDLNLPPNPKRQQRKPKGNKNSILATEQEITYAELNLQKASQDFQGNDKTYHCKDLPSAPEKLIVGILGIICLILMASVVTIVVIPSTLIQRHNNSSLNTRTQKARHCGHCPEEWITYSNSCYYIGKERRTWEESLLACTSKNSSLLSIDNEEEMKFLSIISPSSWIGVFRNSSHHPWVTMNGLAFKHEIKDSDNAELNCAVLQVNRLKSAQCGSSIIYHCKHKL

[6] = molecular target: T2, SHIP polyinositol phosphatase from RBL-2H3 cell lysates (rat (cell line RBL-2H3), UniProt P97573 1-1190, limits assumed); experiment: cell lysate adsorption to peptide beads, immunoblot (RBL-2H3), FIG. 15A
T2 construct: Detected by immunoblot with anti-SHIP antiserum
T2 sequence (looked up): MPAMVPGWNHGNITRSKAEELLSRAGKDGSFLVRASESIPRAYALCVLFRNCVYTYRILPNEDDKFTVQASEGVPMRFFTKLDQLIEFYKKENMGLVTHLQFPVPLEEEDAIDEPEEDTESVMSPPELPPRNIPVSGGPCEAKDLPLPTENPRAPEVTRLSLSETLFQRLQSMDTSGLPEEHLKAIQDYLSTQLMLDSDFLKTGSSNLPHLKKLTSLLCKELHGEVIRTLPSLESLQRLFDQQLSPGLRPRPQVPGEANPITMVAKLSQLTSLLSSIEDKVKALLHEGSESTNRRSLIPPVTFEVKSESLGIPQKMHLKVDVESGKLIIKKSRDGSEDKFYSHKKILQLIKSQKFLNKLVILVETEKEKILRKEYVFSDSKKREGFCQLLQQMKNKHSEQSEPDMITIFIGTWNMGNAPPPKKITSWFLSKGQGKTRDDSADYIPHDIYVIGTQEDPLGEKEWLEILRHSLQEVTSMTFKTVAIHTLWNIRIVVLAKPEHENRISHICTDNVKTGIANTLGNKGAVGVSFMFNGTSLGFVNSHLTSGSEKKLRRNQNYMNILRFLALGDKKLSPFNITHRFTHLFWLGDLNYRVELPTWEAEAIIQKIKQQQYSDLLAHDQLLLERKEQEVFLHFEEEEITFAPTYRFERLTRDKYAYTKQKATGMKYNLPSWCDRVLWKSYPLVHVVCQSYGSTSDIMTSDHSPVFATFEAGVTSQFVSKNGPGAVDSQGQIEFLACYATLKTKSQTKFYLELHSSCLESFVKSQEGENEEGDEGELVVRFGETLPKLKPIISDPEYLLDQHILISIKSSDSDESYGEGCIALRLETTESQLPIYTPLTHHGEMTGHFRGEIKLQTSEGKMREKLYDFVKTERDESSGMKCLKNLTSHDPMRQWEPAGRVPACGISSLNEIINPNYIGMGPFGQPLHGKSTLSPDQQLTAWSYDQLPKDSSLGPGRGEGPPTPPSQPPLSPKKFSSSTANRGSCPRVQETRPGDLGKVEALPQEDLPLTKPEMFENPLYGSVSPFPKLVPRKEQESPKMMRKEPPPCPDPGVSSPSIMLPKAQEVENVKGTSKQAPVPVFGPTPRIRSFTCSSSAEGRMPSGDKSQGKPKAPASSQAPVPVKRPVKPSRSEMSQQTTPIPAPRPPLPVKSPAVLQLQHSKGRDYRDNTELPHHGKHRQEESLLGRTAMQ
Procedure: In an attempt to characterize the function of these putative ITIMs, cell lysates were incubated with phosphorylated and nonphosphorylated synthetic peptides corresponding to the N-terminal and the C-terminal I/VxYxxL stretches present in NKG2A intracytoplasmic domain. Cell lysates absorbed to peptides were then assayed by immunoblotting for the presence of the phosphatases known to interact with phosphorylated ITIMs, i.e. the protein tyrosine phosphatases SHP-1 and SHP-2, as well as the polyinositol phosphate phosphatase, SHIP. In parallel, lysates adsorption were performed using control peptides corresponding to ITIMs present in Ig-like ITIM bearing receptors such as human KIRs (p58.2/CD158b, a receptor for HLA-Cw3) and mouse FcγRIIB, as well as in mouse lectin-like ITIM-bearing receptor, such as Ly-49A.
As shown in FIG. 15A (lanes 1 and 2), both N- and C-terminal I/VxYxxL stretches present in NKG2A associate with SHP-1 and SHP-2 in vitro, but no binding to SHIP was detected. Similar patterns of association were obtained using the phosphorylated ITIM peptides of […] and p58.2 KIR (FIG. 15A, lanes 3 to 5). In contrast, FcγRIIB phosphorylated ITIM peptides also associate with SHIP (FIG. 15A, lane 6). No association of phosphatases with nonphosphorylated peptides corresponding to FcγRIIB (FIG. 15A, lane 7) and NKG2A N- and C-terminal I/VxYxxL stretches was detected. When nonphosphorylated and phosphorylated peptides were used to adsorb lysates prepared from ³⁵S methionine/cysteine-labeled cells, only two bands around 64 and 68 kDa selectively associate with both phosphorylated NKG2A N- and C-terminal I/VxYxxL stretches, as compared to nonphosphorylated ones (FIG. 15B). The 64 and 68 kDa proteins which bind to phosphorylated NKG2A peptides correspond to SHP-1 and SHP-2 apparent molecular weight respectively, supporting the immunoblotting results. Therefore, our results define the two NKG2A I/VxYxxL stretches as ITIMs which appear to function similarly to other ITIMs present in inhibitory receptors for MHC class I molecules, i.e. KIRs and Ly-49 molecules. Using recombinant soluble tandem SH2 domains of SHP-1 and SHP-2, we confirmed by surface plasmon resonance that both NKG2A ITIM phosphopeptides directly associate with the SH2 domains of SHP-1 and SHP-2, but not with the SH2 domain of SHIP (FIG. 16).

[7] = molecular target: T3, GST-SHIP.SH2 fusion protein (murine, UniProt Q9ES52 8-104); experiment: SPR (BIAcore) with recombinant GST fusion protein
T3 construct: also called SH2 domain of SHIP; not shown: Glutathione S-transferase (GST) fusion partner
T3 sequence (looked up): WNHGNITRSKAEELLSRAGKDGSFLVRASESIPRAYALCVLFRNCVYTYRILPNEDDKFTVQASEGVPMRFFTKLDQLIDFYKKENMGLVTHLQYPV
Procedure: Fusion proteins and surface plasmon resonance analysis. Surface plasmon resonance (SPR) measurements were performed on a BIAcore™ (Pharmacia). The GST-SHP-1.SH2(NC), GST-SHP-1.SH2(N), GST-SHP-1.SH2(C), GST-SHIP.SH2 fusion proteins generated from the murine phosphatase cDNA, were purified from DH5α lysates. Briefly, overnight culture at 37° C. in LB medium containing 50 μg/ml ampicillin was diluted 1/10 in fresh medium, and incubated until the absorbance at 600 nm reaches 1-2. At that point, IPTG was added (1 mM), and incubation continued for an additional 4 hours at 37° C. After centrifugation, bacteria pellet was resuspended in TENGN buffer (50 mM Tris pH 8, 1 mM EDTA, 10% glycerol, 1% NP40, 1 mM DTT, 1 mM PMSF, 10 μg/ml aprotinin and 10 μg/ml leupeptine). Bacteria were lysed by sonication. After centrifugation, supernatant was incubated with Glutathione-Sepharose 4B beads (Pharmacia) overnight at 4° C. with slow shaking. After 3 washes with 50 mM Tris pH 8, elution of the fusion protein was carried out using 50 mM Tris pH 8 supplemented with 10 mM reduced glutathione. […] Protein purity was assessed by 12.5% SDS-PAGE, and Coomassie blue staining. […] Then, biotinylated peptides were injected, and their binding to streptavidine-coated microchips was assessed using anti-phosphotyrosine 4G10 mAb (UHI).

[8] = molecular target: T4, SHP-2 protein tyrosine phosphatase from RBL-2H3 cell lysates (rat (cell line RBL-2H3), UniProt P41499 2-593); experiment: cell lysate adsorption to peptide beads, immunoblot (RBL-2H3)
T4 construct: Detected by immunoblot with anti-SHP-2 mAb
T4 sequence (looked up): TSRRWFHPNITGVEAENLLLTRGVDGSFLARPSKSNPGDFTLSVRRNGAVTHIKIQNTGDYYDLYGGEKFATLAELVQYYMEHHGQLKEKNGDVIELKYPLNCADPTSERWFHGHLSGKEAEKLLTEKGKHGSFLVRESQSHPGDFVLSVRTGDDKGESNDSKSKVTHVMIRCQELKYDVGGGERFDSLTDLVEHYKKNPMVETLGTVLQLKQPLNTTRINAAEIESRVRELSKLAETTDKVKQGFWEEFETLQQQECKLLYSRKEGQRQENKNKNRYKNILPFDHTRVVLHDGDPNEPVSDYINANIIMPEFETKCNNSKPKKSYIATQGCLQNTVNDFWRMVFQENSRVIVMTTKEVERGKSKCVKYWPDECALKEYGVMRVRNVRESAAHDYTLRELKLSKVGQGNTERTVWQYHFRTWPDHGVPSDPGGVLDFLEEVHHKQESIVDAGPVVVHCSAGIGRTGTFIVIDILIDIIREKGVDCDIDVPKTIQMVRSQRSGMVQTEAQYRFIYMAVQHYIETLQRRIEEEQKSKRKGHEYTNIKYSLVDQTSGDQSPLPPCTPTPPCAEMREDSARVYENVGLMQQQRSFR

[9] = molecular target: T5, SHP-1 protein tyrosine phosphatase from RBL-2H3 cell lysates (rat (cell line RBL-2H3), UniProt P81718 1-613); experiment: as above
T5 construct: Detected by immunoblot with anti-SHP-1 mAb
T5 sequence (P81718 whole entry): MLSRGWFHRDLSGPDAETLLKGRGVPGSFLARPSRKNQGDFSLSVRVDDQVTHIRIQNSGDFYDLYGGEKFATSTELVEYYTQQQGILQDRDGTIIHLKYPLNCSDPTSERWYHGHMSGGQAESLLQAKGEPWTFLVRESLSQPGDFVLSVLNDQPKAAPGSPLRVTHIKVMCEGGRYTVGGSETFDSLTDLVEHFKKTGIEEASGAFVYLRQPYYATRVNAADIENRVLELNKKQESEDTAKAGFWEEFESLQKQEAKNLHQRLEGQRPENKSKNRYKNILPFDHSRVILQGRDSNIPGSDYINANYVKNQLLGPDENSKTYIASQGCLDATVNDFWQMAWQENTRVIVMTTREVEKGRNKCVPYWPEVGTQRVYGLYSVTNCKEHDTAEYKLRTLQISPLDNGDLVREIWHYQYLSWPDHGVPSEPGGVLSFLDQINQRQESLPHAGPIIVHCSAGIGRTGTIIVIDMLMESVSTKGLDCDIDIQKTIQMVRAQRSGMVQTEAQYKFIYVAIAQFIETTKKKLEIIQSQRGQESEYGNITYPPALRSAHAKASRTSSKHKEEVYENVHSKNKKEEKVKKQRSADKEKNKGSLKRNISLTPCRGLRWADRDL

[10] = molecular target: T2, SHIP polyinositol phosphatase from …; experiment: as above

- Kd [1]: 2.83 nM
- koff [1]: 0.00117 s⁻¹
- kon [1]: 410000 M⁻¹ s⁻¹
- Kd [2]: 4.8 nM
- koff [2]: 0.00189 s⁻¹
- kon [2]: 390000 M⁻¹ s⁻¹
- Kd [3]: 1 to 5 nM
Molecule: GST-SHP-1.SH2(N+C) fusion protein (from UniProt P29351 1-217)

- Kd [1]: 1.57 nM
- koff [1]: 0.00132 s⁻¹
- kon [1]: 840000 M⁻¹ s⁻¹
- Kd [2]: 1.38 nM
- koff [2]: 0.00142 s⁻¹
- kon [2]: 1.03e+06 M⁻¹ s⁻¹
- Kd [4]: 1 to 5 nM
Molecule: GST-SHP-2.SH2(N+C) fusion protein (from UniProt P35235 1-220)

- binding result [5]: binds
B1: human CD94 on NKL, M117-14 and 7-10 cells (receptor, UniProt Q13241 1-179, looked up)
chain: MAVFKTTLWRLISGTLGIICLSLMSTLGILLKNSFTKLSIEPAFTPGPNIELQKDSDCCSCQEKWVGYRCNCYFISSEQKTWNESRHLCASQKSSLLQLQNTDELDFMSSSQQFYWIGLSYSEEHTAWLWENGSALSQYLFPSFETFNTKNCIAYNPNGNALDESCEDKNRYICKQQLI
notes: whole, on cells

- binding result [6]: no binding
- binding result [7]: no binding
B2: phosphorylated p58.2.1 peptide (N-terminal KIR ITIM) (peptide)
peptide: Biotin-DEQDPQEVT[pY]AQLNH
notes: also called p58.183.1; phosphorylated N-terminal KIR ITIM peptide

- binding result [8]: no binding
- binding result [9]: no binding
Molecule: Biotin-DEQDPQEAT[pY]AQLN (also called mutated KIR ITIM peptide) [phosphorylated p58.2.1-V301A peptide]

- binding result [8]: no binding
- binding result [9]: no binding
B3: phosphorylated FcγRIIB-I260A peptide (peptide)
peptide: Biotin-KTEAENTAT[pY]SLLK
notes: also called FcγRIIB 1-I260A; mutated FcγRIIB ITIM

- binding result [10]: no binding
B4: non-phosphorylated NKG2A N-term peptide (peptide)
peptide: Biotin-MDNQGVIYSDLNL
notes: also called nonphosphorylated NKG2A N-terminal I/VxYxxL stretch

- binding result [6]: no binding
- binding result [7]: no binding
Molecule: Biotin-RPSQRPKTPPTDIIV[pY]TELPNAEP (also called p58.183.2; p58.133.2) [phosphorylated p58.2.2 peptide (C-terminal KIR ITIM)]

— US20040038894A1, “Compounds for modulating cell negative regulations and biological applications thereof” (INSTITUT NATIONAL DE LA SANTE ET DE LA RECHERCHE MEDICALE …, priority 1996, published 2004)
